Test results taken from the nanobody polyreactivity screen of Harvey et al. (2022).

Assay: yeast display, Sf9 membrane polyspecificity reagent, FACS + sequencing; frameworks hold sequencing errors
Procedure, shortened: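 Polyreactivity labels are assigned by the sorting gate from which each nanobody was recovered. The gates were low and high (top ~1%), set on anti-HA fluorescence for expression and streptavidin fluorescence for reagent binding. Before sorting, galactose-induced (36–48 hours) yeast display cells were stained for 1 hour at 4 °C with 10% biotinylated, detergent-solubilized Sf9 membrane reagent.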
With “PVQLVESGGGLVQAGGSLRLSCAASGRTFRSNCMGWYRQAPAKERDLVATISEGGGSTYYADSVKGRFTISRDHAKNNVYLQMNSLKTEYTAVYYCAADKWYVLHYLDMNYWGQGTQVTVSA” the “polyreactivity (PSR sort gate)” value was “high polyreactivity”.
In the case of “PVQLVESGGGLVQAGGSLRLSCAASGRTFYAFDMGWSRQAPGKERELVSRITSGGSTDYADSVKGRFTSSRDNAKNTVYLQMNSLKPEDTAVYYCAAETSYAVSTGDHFDYWGQGTQVTVSS”, the “polyreactivity (PSR sort gate)” value is reported as “high polyreactivity”.
With “PVQLVESGGGLVQAGGSLRLSCAASGSTFYPNAMGWYRQAPGKEWELVAASTAGGSTYYADSVKGRFTISRDNAKNTVYLQMTSLKPEDTAVYSCAADFYWYWWQDWYDYWGQGTQVTVSS” the “polyreactivity (PSR sort gate)” value was “high polyreactivity”.
For “PVQLVESGGGLVQAGGSLRLTCAASGFTLTSNAMGWYRQAPGKERELVAAISKSGGSTHYADSVKGRFTISRDNAKNTVYLQMNSLKAEDTAVYYCATPYHRRFKGGDYWGQGTQVSVSS”, the “polyreactivity (PSR sort gate)” value was “high polyreactivity”.
For “PVQLVESGGGLVQAGGSLRVSCAASGSIFYKNAMGWYRQAPGKEREMVAAITSSGGRTYYADSVKGRFTISRDNPKNTVYLQMNSLKPEDTAVFYCAAVYGYDKYDSWGLGTQVTVSS”, the “polyreactivity (PSR sort gate)” value was “low polyreactivity”.
For “PVQLVESGGGLVQEGGSLRLICAASGRTFYGYAMGCYRPAPGKEREFVAAINSSGGTTYYADSVKGRCTISRDNAKNTVYRAMNSVKPEDTAFSYCAAVYSRIRRWPGYNAYDYWGHGTQVTVSS”, the “polyreactivity (PSR sort gate)” value was “high polyreactivity”.
In the case of “PVQLVESGGGVVQAGGSLRLSCAASGSTFEYYAMGWYRQAPGKERELVAAITRRGGSTYSADSVKGRFTISRDNAKNTVYVQMNSLKPEDTAVYYCAAKGFPRSGYPYQAQHMYYWGQGTQVTVSS”, the “polyreactivity (PSR sort gate)” value is reported as “low polyreactivity”.
For “PVQLVVSGGGLVQAGGSLRLSWAASGLIFRYYAMGWYRQAPGKERELVATIRGGGSTYYADSVKGRFTISRDKAKNTVTLQMNSLKPEATAVDYSAADPYSYGARGARGDYWGQGTQGTVSS”, the “polyreactivity (PSR sort gate)” value was “low polyreactivity”.
In the case of “QAELVESGGGLVQAGGSLRLSCAASGFTFTAYPMGWYRQAPGKERELVAAISYRGGRTNYAYSVKGRFTISRDNAKNTVYLQMNRLKPEDTAVYYCAARPRISTREMDYWGQGTQVTVSS”, the “polyreactivity (PSR sort gate)” value is reported as “high polyreactivity”.
With “QAQLQESGGSLVKAGGGLRLSCAASGYISVGSVMGRYRQAPSKERELVASIDQGANTNYADSVKGRFTISRDNGKNNVYLQMNSLKPEDTAVYYCATETTYILNYWGQGTEVTVSS” the “polyreactivity (PSR sort gate)” value was “low polyreactivity”.
For “QAQLVESGGGLVQAGGSLRLSCAASGFTFSFNAMGWYRQAPGKERELVAAISSTGSSTYYADSVKGRFTISRDNAKNTVYLQMNSLKPEDTAVYYCAASRRGYRPRRYDYWGQGTQVTVSS”, the “polyreactivity (PSR sort gate)” value was “high polyreactivity”.
In the case of “QDHLVDSGGGLVQAGGSLRLSCAAYGFTFYYNTMGWYRQAPGKERQLVAAISYSAGSTFYADSVKGRFTISRDNAKNTVYLQMNSLKPEDTAVYYCAAGRPRLHKGYHFGYWGQGTQVTVSS”, the “polyreactivity (PSR sort gate)” value is reported as “low polyreactivity”.
For “QDHLVESGGGLVPAGGSLRLSCAASGRIVYYVMGRYRQAPGKERELVAAISTRGGSTYYADSVKGRFTISRDNPKNTVYLQMNSLKAEDTAVYYCADSSLLTRYNSWGQGTQVTVSS”, the “polyreactivity (PSR sort gate)” value was “high polyreactivity”.
In the case of “QDHLVESGGGLVQAGGSLRLICAASGSTFTQYTMGWYRQAPGKERELVAAISSGGGRTYYADSVKGRFTISRDNAKNTVYLQMYSLKPEDTAFYYCAADYQNSRRGRGNSQYYYWGQGTQVTVSS”, the “polyreactivity (PSR sort gate)” value is reported as “low polyreactivity”.
In the case of “QDHLVESGGGVVQAGGSLRLSCAATGSTIYRYPMGSYRQAPGNERELVAAISTRGGSTYYADSVKGRFTISRDNRKNTVYLQMNSLKPVDTAVYYCAAKCGSPDDYDYWGQGTQVTVSS”, the “polyreactivity (PSR sort gate)” value is reported as “high polyreactivity”.
In the case of “QDKLVESGGGLVQAGGSLRLSCAASGSTSRDNAMVWYRQAPGKERELVAAITVIDGTTYYADSVKGRFTISRDNAKNTLYLQMNSLKPEDTAVYYCAADTIWFEYYYWGQGTQVTVSS”, the “polyreactivity (PSR sort gate)” value is reported as “low polyreactivity”.
For “QDQHVESGGGLVQAGGSLRLICDASGTFKFSAMGWYRQAPGKERELVARISRGGTTNYADSVKGRFTISRDNAKNTVYLQMNSLKPAETAVYYCAAPLRYVYSNSYWAYRYDYSGQGTQVTVSS”, the “polyreactivity (PSR sort gate)” value was “high polyreactivity”.
For “QDQHVESGGGLVQAGGSLRLSCAASGLTFDQYAMGWYRQAPGKERELVAAISGSDSTYYADSVKGRFTISRDNAKNTVYLQMNSLKPEDTAVYYCAASGDYVNIITGERFDARLYDYWGQGTQVTVSS”, the “polyreactivity (PSR sort gate)” value was “low polyreactivity”.
For “QDQHVESGGGLVQAGGSLRLSCAASGNTFIRNVMGWYRLAPGKERELVAGIRTGGSTFYADSVKGRFTISRDNAKNTVYLQMNSLKPEDTAVYYCKAEVGDEGNLPYVIRPMDYWGQGTQVTVSS”, the “polyreactivity (PSR sort gate)” value was “low polyreactivity”.
With “QDQHVESGGGLVQAGGSLRLSCAASGRIYDPYAMGWYRPAPGKERELVATISYSDGSTYYADSVKGRFTISRDNAKNTVYLQMNSLKPEDTAVYYGNAEFVGWWGYPTVLRLEYWGQGTQVTVSS” the “polyreactivity (PSR sort gate)” value was “low polyreactivity”.
In the case of “QDQHVESGGGLVQAGGSLRLSCAASGSNFDVYAMGWYRQAPGKERELVATISYGDSSTYYADSVKGRFTISRDNAKNTVYLQMNSLKPEDTAVYYCAADYLTAPRWRQWGVMDYWGQGTLVTVSS”, the “polyreactivity (PSR sort gate)” value is reported as “low polyreactivity”.
With “QDQHVESGGGLVQAGGSLRLSCAASGSTFAWYSMGWYRQAPGKERELVASITSTGSTNYADSVKGRYTISRDNAKNTVYLQMNSLKPVDTAVYYCAAAVRAWYLRLYDYWGQGTQVTVSS” the “polyreactivity (PSR sort gate)” value was “high polyreactivity”.
In the case of “QDQHVESGGGLVQAGGSLRLSGAASGRTVGWYAMGWYRQAHGKVRELVAAITSSVDSTYYADSVKGRFTISRDNAKNTVYLLMNRLKPEDTAVYYCAADYDDGFYLYDYWGQGTQVTVSS”, the “polyreactivity (PSR sort gate)” value is reported as “low polyreactivity”.
In the case of “QDQHVESGGGLVQAGGSQRLSCAAYGFIFWIYAMGWYRQAPGKEREFVAVITYRGDTTYYADSVKGRFTISRDNAKNTVFLQMNSMKPEDTAVYYCAAYTVQKYGYWGQGTQVTVSS”, the “polyreactivity (PSR sort gate)” value is reported as “low polyreactivity”.
For “QDQHVESGVGLVQAGGSLRLSCAASGSIFGNYAMGWYRQAPGKERELVAAIRVSDGRTYDADSVKGRFTISRDNAKNTVYLQMNSLKPEDTAVYYCAAESESSYGPYDYWGQGTQVTVSS”, the “polyreactivity (PSR sort gate)” value was “low polyreactivity”.
In the case of “QDQHVESGVGLVQEGGSLRLSCAASGIIIDEYAMGLYRQAPGKERELVAAISSRGTNTYYADSVKGRFTISRDNAKNTVYLQMNSLKPEDTAVYYCAARRPPVTRHFGYWGQGTQVTVSS”, the “polyreactivity (PSR sort gate)” value is reported as “high polyreactivity”.
For “QDQHVETGGGLVQAGGSLRLSCAASGRTFKFYAMGWYRQAHGKERELVAAITSGGKTNYADSVKGRFTISRDNAKNTVYLQLNSLKPEDTAVYYCKADAGRLSNRYRLWTYGYWGQGTQVTVSS”, the “polyreactivity (PSR sort gate)” value was “low polyreactivity”.
For “QDQIVESGGGLVQAGGSLRLIFAASGLTIARNAMGWYRQAPGKERELVAAISFSGGSTYYADSVKGRFTISRDNAKNTVYLLMNSLKPEDTAVYYCNTLLRRDFNYWGQGTQVTVSS”, the “polyreactivity (PSR sort gate)” value was “high polyreactivity”.
For “QDQIVESRGRLVQAGGSLRLSCAASGRTFKPYAMGWYRQAPGKERELVARISGSGGSTYYADSVKGRFTISRDNAKNTVYLQMNSLKPEDTAVYDCATTPYYWFYYWGQGTQVTVSS”, the “polyreactivity (PSR sort gate)” value was “low polyreactivity”.
For “QDQIVESWGGLVQSGGSLRLTCAASGRTFSTYAMGWYRQAPGKERELVAAISWRGARTYYADSVKGRFTISRDNAKNTVYLQMNSLKPEDTAVYYCAAAPYRYRRYEYWGQGTQVTVSS”, the “polyreactivity (PSR sort gate)” value was “high polyreactivity”.
In the case of “QDQLEESGGGLLQARGSLRLSCAASGSIFTCNGRGWYRQAPGKERELVAAISNGASTNYADSVKGRFTISRDNAKNSVYLQMNSLKPEDTAVYYCAAKSTGRYDYWGQGTQGTVSS”, the “polyreactivity (PSR sort gate)” value is reported as “low polyreactivity”.
In the case of “QDQLEESGGGLVHAGGSLRLSCAASGRIFLTNAMGWYRQAPGKERELVAAITSGGSTYYADSVKGRFTISRDNEMNTVYLQMNSLNPEDTAVYYCNAYVTSGYANEYYWGQGSQVTVSS”, the “polyreactivity (PSR sort gate)” value is reported as “low polyreactivity”.
For “QDQLEESGGGLVQAGGSLRLSCAASGFIFNHYAMGWYRQAPGKEREFVAAISWSGGSTYYADSVKGRFTISRDYAKNTVYLQMNSLKPEDTAVYYCAASYNGLWHGDYDYWGQGTQVTVSS”, the “polyreactivity (PSR sort gate)” value was “low polyreactivity”.
With “QDQLEESGGGLVQAGGSLRLSCAASGRIFFRNLMGAYRQPTGKERELVATITSGGRTYYADSVKGRFTISRDNAKNTVYLQMNSLKPVDTAVYYCATVYRPGGVYGYEYWGQGTQVTVSS” the “polyreactivity (PSR sort gate)” value was “high polyreactivity”.
With “QDQLEESGGGLVQAGGSLRLSCAASGRTFIYYAMGWYRQAPGKERELVAAITRSGGITNYADSVKGRFTISRDNSKNTVYLQMNSLKTEDTEVYYCAARFYGRRCIYGYWGQGTQVTVSS” the “polyreactivity (PSR sort gate)” value was “high polyreactivity”.
With “QDQLGESGGGLVQAGGSLRLSCAASGFTFWWYAMGWYRQAPGKERELVAGITSGASTYYADSVKGRYTISRDNAKNTVYIQMNSLKPEDTAVYYCAADWLGWYQPYDYWGQGTQVTVSS” the “polyreactivity (PSR sort gate)” value was “low polyreactivity”.
For “QDQLGESGGGLVQAGGSLRLSCAASGSTFTWYAMGWYRQAPGKERELVAAISRGGSTNYADSVKGRFTISRDNAKNTVYLQMNSLKPEDTAVYYFAAESYWRDDYWGQGTQVTLSS”, the “polyreactivity (PSR sort gate)” value was “low polyreactivity”.
With “QDQLVDSGGGLDQAGGSLRLSCAASGIIFPRYALGWYRQAPGKERELVAAITRRGGRTYYADSVKGRFTISRDNAKNTVYLQMNSLKPEDTAVYYCNADFISTLPPKATEEDYWGQGTQVTVSS” the “polyreactivity (PSR sort gate)” value was “high polyreactivity”.
With “QDQLVDSGGGLLQAGGSLSLSCAASGHIIQVKTMGWYRQAPGKERELVASISASVGSTYYADSVKGRFTISRDNAKNTVYLQMNSLKPEDTAVYYCAKSLGYSVVRTLSPTGFYYWGQGTQVTVSS” the “polyreactivity (PSR sort gate)” value was “low polyreactivity”.
For “QDQLVDSGGGLVQAGGSLRLICAASGYIIHDNAMGWYRQAPGKERELVAAINRGGSTHYADSVKGRFTISRDNAKNTVYLQMNSLKPEDTAVYYCAAKDGRSYYDRTPMDYWGQGTQVTVSS”, the “polyreactivity (PSR sort gate)” value was “low polyreactivity”.
In the case of “QDQLVDSGGGLVQAGGSLRLRCGASGRILAWYAMGWYRQAPGKEREFVAGNTGSVGSTYYADSVKGRFTNSRDNEKNTVDLQMNSLKPEDTAVYYCYNEWDSTSGQKHYYWGQGTQVTVSS”, the “polyreactivity (PSR sort gate)” value is reported as “low polyreactivity”.
In the case of “QDQLVDSGGGLVQAGGSLRLSCAASGRIFTINAMGWYRQAPGKERELVAAITYSGGSTYADSVKGRFTISRDNAKNTVYLQMNSLKPEDTAVYYCNAKLTWSRRYVRYNYWGQGTQVTVSS”, the “polyreactivity (PSR sort gate)” value is reported as “high polyreactivity”.
In the case of “QDQLVDSGGGLVQAGGSLRLSCAASGSTFGYYVMGWYRQAPGKERELVAAISDSDGSTYYADSVKGRFTISRDNAKNTVYLQMYSLKPEDTAVYYCATGPHQPPYSYLDYDYWGQGTQVTVSS”, the “polyreactivity (PSR sort gate)” value is reported as “low polyreactivity”.
